Data published in article PMC2173242 (The Journal of Cell Biology, 2002).

Biological target: Human recombinant His6-tagged Hsp70 (human, UniProt P0DMV8 1-641)
Experiment: pull-down

Sequence of Human recombinant His6-tagged Hsp70 (P0DMV8 whole entry): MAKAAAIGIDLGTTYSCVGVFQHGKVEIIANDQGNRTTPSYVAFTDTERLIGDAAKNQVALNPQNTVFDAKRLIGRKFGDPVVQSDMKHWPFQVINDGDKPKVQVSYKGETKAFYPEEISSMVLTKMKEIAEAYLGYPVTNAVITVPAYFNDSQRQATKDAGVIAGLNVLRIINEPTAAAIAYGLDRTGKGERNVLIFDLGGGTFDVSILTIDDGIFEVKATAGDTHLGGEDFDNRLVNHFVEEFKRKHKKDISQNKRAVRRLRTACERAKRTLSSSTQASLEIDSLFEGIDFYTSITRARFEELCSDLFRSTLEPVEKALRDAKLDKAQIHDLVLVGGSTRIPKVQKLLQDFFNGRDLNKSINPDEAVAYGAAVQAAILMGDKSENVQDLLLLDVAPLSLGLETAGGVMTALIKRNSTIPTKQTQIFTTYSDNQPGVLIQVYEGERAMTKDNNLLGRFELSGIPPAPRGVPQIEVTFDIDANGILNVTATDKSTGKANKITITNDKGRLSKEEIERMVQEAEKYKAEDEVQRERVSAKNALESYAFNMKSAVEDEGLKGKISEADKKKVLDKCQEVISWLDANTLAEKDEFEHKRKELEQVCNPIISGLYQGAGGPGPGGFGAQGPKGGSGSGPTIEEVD

ka (saturation of the effect of peptide C on binding of Hsp70-ADP to GST-CD40): ~30 µM
B1: Peptide C (peptide)
peptide: GCEVFGLGWRSYKH
